PMC2761489

Key:
[1] = target: GMPCPP microtubules (GMPCPP-tubulin microtubule lattice; seeds and GMPCPP-grown extensions) of porcine brain tubulin (porcine) (UniProt P02550); test: two-color TIRF microscopy; GMPCPP seeds immobilised on coverslips (biotin-neutravidin or anti-rhodamine antibodies); 50 nM EB1-GFP with 12 uM free tubulin (10-24 uM in other runs) and 1 mM GTP in Imaging Buffer (BRB80, glucose, glucose-oxidase, catalase, casein, beta-mercaptoethanol), no additional salt; 35 C
[2] = target: Microtubule extensions grown from free porcine brain tubulin with GTP (GDP-tubulin lattice with growing ends) (porcine) (UniProt P02550); test: as above

average fluorescence intensity, seed minus background [1]: 62.6 AU | average fluorescence intensity, extension minus background [2]: 12.8 AU
Substance: C-terminus GFP-tagged EB1 (from UniProt Q15691 1-268) (natural protein)
